Assay results published in patent US20070172470.

T1: RAP74, P35269
T1 chain: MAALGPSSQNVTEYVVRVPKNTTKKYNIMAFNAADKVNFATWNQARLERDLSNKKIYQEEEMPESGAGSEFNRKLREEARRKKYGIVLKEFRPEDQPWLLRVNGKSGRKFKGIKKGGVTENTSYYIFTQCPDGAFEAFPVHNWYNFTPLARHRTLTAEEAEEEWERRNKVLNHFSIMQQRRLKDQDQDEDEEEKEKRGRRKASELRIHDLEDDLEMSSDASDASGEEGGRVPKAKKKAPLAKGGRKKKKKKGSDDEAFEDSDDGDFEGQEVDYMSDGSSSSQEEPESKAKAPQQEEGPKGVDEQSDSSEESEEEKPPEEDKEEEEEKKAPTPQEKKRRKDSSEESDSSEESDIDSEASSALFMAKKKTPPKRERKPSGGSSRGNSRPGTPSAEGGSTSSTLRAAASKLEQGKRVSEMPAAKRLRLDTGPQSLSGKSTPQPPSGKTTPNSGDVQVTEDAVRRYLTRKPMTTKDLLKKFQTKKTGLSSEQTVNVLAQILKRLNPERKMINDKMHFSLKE


Experiments:
[1] = molecular target: Ser 2 phosphopeptide (28 aa CTD peptide, 4 heptad repeats)
[2] = molecular target: GST-CTDo
[3] = molecular target: Ser 5 phosphopeptide (28 aa CTD peptide, 4 heptad repeats)
[4] = molecular target: T1, RAP74, P35269

Protein | phosphate released from phosphopeptide (malachite green) [1] | CTD phosphatase assay (mobility shift of GST-CTDo to GST-CTDa) [2] | phosphate released from phosphopeptide (malachite green) [3] | CTD phosphatase activity (dephosphorylation of RNAP IIO prepared by TFIIH), with and without 7 pmol RAP74 [4]
GST-SCP1 214 (protein) MMGRPCLLTAGRPCLWRRMAPSLRQTPVQYLLPEAKAQDSDKICVVIDLDETLVHSSFKPVNNADFIIPVEIDGVVHQVYVLKRPHVDEFLQRMGELFECVLFTASLAKYADPVADLLDKWGAFRARLFRESCVFHRGNYVKDLSRLGRDLRRVLILDNSPASYVFHPDNAVPVASWFDNMSDTELHDLLPFFEQLSRVDDVYSVLRQPRPGS | SCP1 preferentially dephosphorylates the Ser 5 phosphopeptide compared to the Ser 2 phosphopeptide | SCP1 dephosphorylates rCTDo and RNAP IIO with comparable efficiency | SCP1 preferentially dephosphorylates the Ser 5 phosphopeptide compared to the Ser 2 phosphopeptide | 
SCP1 261 (protein) MDSSAVITQISKEEARGPLRGKGDQKSAASQKPRSRGILHSLFCCVCRDDGEALPAHSGAPLLVEENGAIPKTPVQYLLPEAKAQDSDKICVVIDLDETLVHSSFKPVNNADFIIPVEIDGVVHQVYVLKRPHVDEFLQRMGELFECVLFTASLAKYADPVADLLDKWGAFRARLFRESCVFHRGNYVKDLSRLGRDLRRVLILDNSPASYVFHPDNAVPVASWFDNMSDTELHDLLPFFEQLSRVDDVYSVLRQPRPGS |  |  |  | RAP74 shifted the dose response curve for SCP1 catalyzed dephosphorylation of RNAP IIO to an approximately 10-fold lower concentration
FCP1 (protein) MEVPAAGRVPAEGAPTAAVAEVRCPGPAPLRLLEWRVAAGAAVRIGSVLAVFEAAASAQSSGASQSRVASGGCVRPARPERRLRSERAGVVRELCAQPGQVVAPGAVLVRLEGCSHPVVMKGLCAECGQDLTQLQSKNGKQQVPLSTATVSMVHSVPELMVSSEQAEQLGREDQQRLHRNRKLVLMVDLDQTLIHTTEQHCQQMSNKGIFHFQLGRGEPMLHTRLRPHCKDFLEKIAKLYELHVFTFGSRLYAHTIAGFLDPEKKLFSHRILSRDECIDPFSKTGNLRNLFPCGDSMVCIIDDREDVWKFAPNLITVKKYVYFQGTGDMNAPPGSRESQTRKKVNHSRGTEVSEPSPPVRDPEGVTQAPGVEPSNGLEKPARELNGSEAATPRDSPRPGKPDERDIWPPAQAPTSSQELAGAPEPQGSCAQGGRVAPGQRPAQGATGTDLDFDLSSDSESSSESEGTKSSSSASDGESEGKRGRQKPKAAPEGAGALAQGSSLEPGRPAAPSLPGEAEPGAHAPDKEPELGGQEEGERDGLCGLGNGCADRKEAETESQNSELSGVTAGESLDQSMEEEEEEDTDEDDHLIYLEEILVRVHTDYYAKYDRYLNKEIEEAPDIRKIVPELKSKVLADVAIIFSGLHPTNFPIEKTREHYHATALGAKILTRLVLSPDAPDRATHLIAARAGTEKVLQAQECGHLHVVNPDWLWSCLERWDKVEEQLFPLRDDHTKAQRENSPAAFPDREGVPPTALFHPMPVLPKAQPGPEVRIYDSNTGKLIRTGARGPPAPSSSLPIRQEPSSFRAVPPPQPQMFGEELPDAQDGEQPGPSRRKRQPSMSETMPLYTLCKEDLESMDKEVDDILGEGSDDSDSEKRRPEEQEEEPQPRKPGTRRERTLGAPASSERSAAGGRGPRGHKRKLNEEDAASESSRESSNEDEGSSSEADEMAKALEAELNDLM | Mammalian FCP1, within a comparable concentration range, did not act on either phosphopeptide | FCP1 does not dephosphorylate rCTDo even at concentrations 100 times higher than that required to dephosphorylate RNAP IIO | Mammalian FCP1, within a comparable concentration range, did not act on either phosphopeptide | 
